The record followed here is paper PMC4643928.

What all share (assay): fluorescence anisotropy
Common to all, as to settings: FA: 20 mM Tris-HCl pH 7.5, 70 mM KCl, 1 mM MgCl2, 10% glycerol, 50 nM DNA, EMSA: 20 mM Tris-HCl pH 7.5, 300 mM KCl, 4 mM MgCl2, 5 mM DTT, 1 nM …
For orientation: Polarisation of emitted light reports the rotation of a fluorescent probe.

Data set [1] concerns EcGyrA-CTD(ΔT) (Escherichia coli).
In data set [2] the test system is MBP-PfGyrA-CTD (Plasmodium falciparum).
The test system of data set [3] is MBP-PfGyrA-CTD(ΔN) (Plasmodium falciparum).

The Kd is the free concentration of one partner at which half of the binding sites on the other are occupied at equilibrium, for simple one-to-one binding. Read a low Kd as a tighter complex. As for 37-bp dsDNA, the Kd is 1110 nM in data set [1], 205 nM in data set [2] and 222 nM in data set [3].
